Target: SARS-CoV-2 receptor-binding domain (RBD) homodimer (SARS-CoV-2) (UniProt P0DTC2)
Assay: reducing and non-reducing SDS-PAGE

## SARS-CoV-2 receptor-binding domain (RBD) homodimer (from UniProt P0DTC2 319-541) (domain or fragment)
  stoichiometry N: 2
